Seven sequences from the Immune Epitope Database (IEDB) can be followed below.

One assay concerns the target HLA-B*18:01. Kind of assay: IEDB peptide-MHC binding, purified MHC/competitive/fluorescence; filed as Kd, often an IC50 or EC50 that approximates it; ≥ and ≤ were set here for values at or beyond the usual limits of such assays.
In the next assay the target is HLA-B*39:01. Described as above.
For a further assay, the target named is HLA-A*02:01. The assay is described as above.
Another assay deals with HLA-A*69:01. The description is as above.
Another assay deals with HLA-B*15:01. Described as above.
For the next assay, the target named is HLA-B*15:17. The assay is described as above.
In the next assay the target is HLA-B*57:01. Described as above.
The target in a further assay is HLA-B*27:03. Described as above.
For another assay, the target named is HLA-B*51:01. The assay is described as above.
The next assay deals with HLA-B*46:01. The assay is described as above.
In another assay the target is HLA-A*26:01. The assay is described as above.
For assay [1], the target named is HLA-A*03:01. Kind of assay: IEDB peptide-MHC binding, purified MHC/direct/fluorescence; filed as Kd, often an IC50 or EC50 that approximates it; ≥ and ≤ were set here for values at or beyond the usual limits of such assays.
For a further assay, the target named is HLA-A*02:12. The description is as above.
Another assay concerns the target HLA-A*29:02. The assay is described as above.
The next assay has as its target HLA-A*02:19. The assay is described as above.
A further assay deals with HLA-A*02:11. The description is as above.
The next assay addresses HLA-A*02:16. Described as above.
The target in the next assay is HLA-A*02:03. Described as above.
A further assay has as its target HLA-A*24:03. The description is as above.
For a further assay, the target named is HLA-A*68:02. The assay is described as above.
Another assay concerns the target HLA-B*40:01. The description is as above. Particulars: source organism: Zaire ebolavirus.
The target of assay [2] is HLA-A*03:01. Briefly: IEDB peptide-MHC binding, purified MHC/competitive/fluorescence; ≥ and ≤ were set here for values at or beyond the usual limits of such assays. To be noted: source organism: Sudan ebolavirus.
Another assay has as its target HLA-A*11:01. Described as above. To be noted: source organism: Sudan ebolavirus.
The target of another assay is HLA-A*23:01. Kind of assay: IEDB peptide-MHC binding, purified MHC/direct/fluorescence; filed as Kd, often an IC50 or EC50 that approximates it; ≥ and ≤ were set here for values at or beyond the usual limits of such assays.
The target in a further assay is HLA-B*27:05. The assay is described as above. To be noted: source organism: Zaire ebolavirus.
Another assay deals with HLA-A*31:01. Kind of assay: IEDB peptide-MHC binding, purified MHC/competitive/fluorescence; filed as Kd, often an IC50 or EC50 that approximates it; ≥ and ≤ were set here for values at or beyond the usual limits of such assays. To be noted: source organism: Zaire ebolavirus.
The target in another assay is HLA-B*07:02. Kind of assay: IEDB peptide-MHC binding, purified MHC/direct/fluorescence; filed as Kd, often an IC50 or EC50 that approximates it; ≥ and ≤ were set here for values at or beyond the usual limits of such assays. To be noted: source organism: Seoul virus 80-39.
The target of assay [3] is HLA-B*58:01. Kind of assay: IEDB peptide-MHC binding, purified MHC/competitive/fluorescence; filed as Kd, often an IC50 or EC50 that approximates it; ≥ and ≤ were set here for values at or beyond the usual limits of such assays. To be noted: source organism: Orthohantavirus andesense.
Assay [4] addresses HLA-B*58:01. Kind of assay: IEDB peptide-MHC binding, purified MHC/direct/fluorescence; filed as Kd, often an IC50 or EC50 that approximates it; ≥ and ≤ were set here for values at or beyond the usual limits of such assays. Particulars: source organism: Orthohantavirus andesense.
The mark [5] stands for this setting: source organism: Zaire ebolavirus.
[6] abbreviates: source organism: Seoul virus 80-39.
[7] abbreviates: source organism: Orthohantavirus hantanense.
The mark [8] stands for this setting: source organism: Orthohantavirus sinnombreense.
The mark [9] stands for this setting: source organism: Orthohantavirus andesense.
[10] abbreviates: source organism: Limestone Canyon virus.

A word on the Kd: it is the concentration at which binding is half-saturated. A higher Kd goes with a looser complex. Usually IC50 stands for the concentration that gives 50% inhibition.

Take AENCYNLEI: the Kd with HLA-B*18:01 (setting [5]), with HLA-B*39:01 (setting [5]), with HLA-A*02:01 (setting [5]), in the assay with HLA-A*69:01 (setting [5]), in the assay with HLA-B*15:01 (setting [5]) and with HLA-B*15:17 (setting [5]) was not below 20 µM in each case. Besides, the Kd with HLA-B*57:01 (setting [5]), with HLA-B*27:03 (setting [5]), in the assay with HLA-B*51:01 (setting [5]), with HLA-B*46:01 (setting [5]), with HLA-A*26:01 (setting [5]) and in the assay with HLA-A*03:01 [1] (setting [5]) was not below 20 µM throughout. Also, the Kd with HLA-A*02:12 (setting [5]), in the assay with HLA-A*29:02 (setting [5]), with HLA-A*02:19 (setting [5]), with HLA-A*02:11 (setting [5]), in the assay with HLA-A*02:16 (setting [5]) and with HLA-A*02:03 (setting [5]) was not below 20 µM in each case. The Kd is not below 20 µM in the assay with HLA-A*24:03 (setting [5]), not below 20 µM with HLA-A*68:02 (setting [5]) and 0.0822 µM with HLA-B*40:01.
In the case of DRLASTVIY, the IC50 in the assay with HLA-A*03:01 [2] is not below 257 µM; with HLA-A*11:01, not below 120 µM. Besides, the Kd with HLA-B*18:01 (setting [5]), in the assay with HLA-B*39:01 (setting [5]), with HLA-A*02:01 (setting [5]), with HLA-A*69:01 (setting [5]), in the assay with HLA-B*15:01 (setting [5]) and with HLA-B*15:17 (setting [5]) was not below 20 µM throughout. In addition, the Kd in the assay with HLA-B*57:01 (setting [5]), with HLA-B*27:03 (setting [5]), with HLA-B*51:01 (setting [5]), with HLA-B*46:01 (setting [5]), in the assay with HLA-A*26:01 (setting [5]) and in the assay with HLA-A*03:01 [1] (setting [5]) was not below 20 µM each time. Also, the Kd in the assay with HLA-A*02:12 (setting [5]), with HLA-A*29:02 (setting [5]), in the assay with HLA-A*02:19 (setting [5]), with HLA-A*02:11 (setting [5]), in the assay with HLA-A*23:01 (setting [5]) and with HLA-A*02:16 (setting [5]) was not below 20 µM throughout. Further, the Kd with HLA-A*02:03 (setting [5]) was not below 20 µM; in the assay with HLA-A*24:03 (setting [5]) it was not below 20 µM; with HLA-B*27:05, 8.77 µM.
On to GIVSSMHYK, for which the Kd with HLA-B*18:01 (setting [5]), with HLA-B*39:01 (setting [5]), in the assay with HLA-A*02:01 (setting [5]), with HLA-A*69:01 (setting [5]), with HLA-B*15:01 (setting [5]) and with HLA-B*15:17 (setting [5]) was not below 20 µM throughout. Further, the Kd with HLA-B*57:01 (setting [5]), with HLA-A*31:01, with HLA-B*27:03 (setting [5]), with HLA-B*51:01 (setting [5]), with HLA-B*46:01 (setting [5]) and in the assay with HLA-A*26:01 (setting [5]) was not below 20 µM throughout. The dissociation constant (Kd) with HLA-A*03:01 [1] (source organism: Sudan ebolavirus - Maleo (1979)) was 1.38 µM; with HLA-A*02:12 (setting [5]) it was not below 20 µM; with HLA-A*29:02 (setting [5]), not below 20 µM; with HLA-A*02:19 (setting [5]), not below 20 µM; in the assay with HLA-A*02:11 (setting [5]), not below 20 µM; with HLA-A*23:01 (setting [5]), not below 20 µM. For the same sequence, the dissociation constant (Kd) with HLA-A*02:16 (setting [5]), in the assay with HLA-A*02:03 (setting [5]), with HLA-A*24:03 (setting [5]) and in the assay with HLA-A*68:02 (setting [5]) was not below 20 µM each time.
As for LVRDITESL, the Kd in the assay with HLA-B*18:01 (setting [6]), with HLA-B*39:01 (setting [6]), with HLA-A*69:01 (setting [6]), with HLA-B*57:01 (setting [6]), with HLA-B*27:03 (setting [6]) and with HLA-B*51:01 (setting [6]) was not below 20 µM each time. For the same sequence, the Kd with HLA-A*26:01 (setting [6]), with HLA-A*03:01 [1] (setting [7]), in the assay with HLA-A*02:12 (setting [7]), with HLA-A*29:02 (setting [7]), in the assay with HLA-A*23:01 (setting [7]) and with HLA-A*02:16 (setting [7]) was not below 20 µM each time. The results for the Kd with HLA-B*07:02, in the assay with HLA-A*02:03 (setting [7]) and in the assay with HLA-A*24:03 (setting [7]) were 0.0392 µM, not below 20 µM and not below 20 µM, respectively.
Turning to LVTARQKLK, the Kd with HLA-B*18:01 (setting [8]), with HLA-B*39:01 (setting [8]), with HLA-A*02:01 (setting [8]), in the assay with HLA-A*69:01 (setting [8]), with HLA-B*15:01 (setting [8]) and with HLA-B*15:17 (setting [8]) was not below 20 µM in each case. Also, the Kd is not below 20 µM with HLA-B*57:01 (setting [8]); not below 20 µM in the assay with HLA-B*27:03 (setting [8]); not below 20 µM in the assay with HLA-B*51:01 (setting [8]); not below 20 µM with HLA-B*46:01 (setting [8]); not below 20 µM in the assay with HLA-A*26:01 (setting [8]); 9 µM with HLA-A*03:01 [1] (setting [9]). For the same sequence, the Kd with HLA-A*02:12 (setting [10]), in the assay with HLA-A*29:02 (setting [10]), with HLA-A*02:19 (setting [10]), with HLA-A*02:11 (setting [10]), in the assay with HLA-A*23:01 (setting [10]) and in the assay with HLA-A*02:16 (setting [10]) was not below 20 µM each time. The Kd with HLA-A*02:03 (setting [10]), with HLA-A*24:03 (setting [10]) and in the assay with HLA-A*68:02 (setting [10]) was not below 20 µM each time.
Take NALEKALRW: the Kd in the assay with HLA-B*18:01 (setting [9]) was not below 20 µM; with HLA-B*39:01 (setting [9]), not below 20 µM; with HLA-A*02:01 (setting [9]), not below 20 µM; with HLA-B*58:01 [3] it was 0.0255 µM; in the assay with HLA-A*69:01 (setting [9]), not below 20 µM; with HLA-B*15:01 (setting [9]) it was not below 20 µM. In addition, the Kd with HLA-B*27:03 (setting [9]), with HLA-B*46:01 (setting [9]), with HLA-A*26:01 (setting [9]), with HLA-A*03:01 [1] (setting [9]), with HLA-A*02:12 (setting [9]) and with HLA-A*29:02 (setting [9]) was not below 20 µM throughout. The equilibrium dissociation constant (Kd) with HLA-A*02:19 (setting [9]), with HLA-A*02:11 (setting [9]), with HLA-A*02:16 (setting [9]), in the assay with HLA-A*02:03 (setting [9]), in the assay with HLA-A*24:03 (setting [9]) and with HLA-A*68:02 (setting [9]) was not below 20 µM in each case.
On to VSANVKGNW, for which the Kd with HLA-B*18:01 (setting [9]), with HLA-B*39:01 (setting [9]), with HLA-A*02:01 (setting [9]), with HLA-A*69:01 (setting [9]), with HLA-B*15:01 (setting [9]) and with HLA-B*27:03 (setting [9]) was not below 20 µM in each case. Moreover, the dissociation constant Kd with HLA-B*46:01 (setting [9]), in the assay with HLA-A*26:01 (setting [9]), in the assay with HLA-A*03:01 [1] (setting [9]), with HLA-A*02:12 (setting [9]), in the assay with HLA-A*29:02 (setting [9]) and with HLA-A*02:19 (setting [9]) was not below 20 µM throughout. The equilibrium dissociation constant (Kd) is not below 20 µM with HLA-A*02:11 (setting [9]); 0.0023 µM with HLA-B*58:01 [4]; not below 20 µM with HLA-A*02:16 (setting [9]); not below 20 µM with HLA-A*02:03 (setting [9]); not below 20 µM with HLA-A*24:03 (setting [9]); not below 20 µM in the assay with HLA-A*68:02 (setting [9]).
